Results as given in patent US11472877 (Alector, dated 2022).
Residue numbers refer to the chain shown, from its start.

B1: T1-34 (antibody, IgG1, V domains shown)
VH: EVQLVESGGGLVKPGGSLRLSCAASGFTFSSYSMNWVRQAPGKGLEWVSSISSSSNYIYYADSVKGRFTISRDNAKNSLYLQMNSLKAEDTAVYYCARRPDDRRGLFQHWGQGTLVTVSS
VL: DIQMTQSPSTLSASVGDRVTITCRASQSINSWLAWYQQKPGKAPKLLISDASSLESGVPSRFSGSGSGTEFTLTISSLQPDDFATYYCQQYGPYPYTFGGGTKVEIK
notes: huIgG1; also called TI-34; ADI-19108
B2: T1-20 (antibody, IgG1, V domains shown)
VH: EVQLVESGGGLVQPGGSLRLSCAASGFTFSSYWMSWVRQAPGKGLEWVANIKQDGSEKYYVDSVKGRFTISRDNAKNSLYLQMNSLRAEDTAVYYCARDAPQLGLDVWGQGTMVTVSS
VL: not shown
notes: huIgG1; also called TI-20; ADI-19087
B3: T1-11 (antibody, IgG1, V domains shown)
VH: QLQLQESGPGLVKPSETLSLTCTVSGGSISSSSYYWGWIRQPPGKGLEWIGSIYYSGSTYYNPSLKSRVTISVDTSKNQFSLKLSSVTAADTAVYYCARSGEYGFDLWGRGTLVTVSS
VL: not shown
notes: huIgG1; also called TI-11; ADI-19078
B4: T1-16 (antibody, IgG1, V domains shown)
VH: EVQLVESGGGLVQPGRSLRLSCAASGFTFDDYAMHWVRQAPGKGLEWVSGISWNSGSIGYADSVKGRFTISRDNAKNSLYLQMNSLRAEDTALYYCAKGPRMSGWWADWGQGTLVTVSS
VL: DIQMTQSPSSVSASVGDRVTITCRASQGISSWLAWYQQKPGKAPKLLIYAASSLQSGVPSRFSGSGSGTDFTLTISSLQPEDFATYYCQQADTLPITFGGGTKVEIK
notes: huIgG1; also called TI-16; ADI-19083
B5: T1-33 (antibody, IgG1, V domains shown)
VH: QVQLVESGGGVVQPGRSLRLSCAASGFTFSNYGMHWVRQAPGKGLEWVAVIWYDGSNKYYADSVKGRFTISRDNSKNTLYLQMNSLRAEDTAVYYCAKGSTHRGSAYGMDVWGQGTTVTVSS
VL: B4 VL with A91I, D92N, T93D, L94H, I96F
notes: huIgG1; also called TI-33; ADI-19107
B6: T1-19 (antibody, IgG1, V domains shown)
VH: EVQLVESGGGLVQPGGSLRLSCAASGFTFSDHHMDWVRQAPGKGLEWVGRTRNKANSYTTEYAASVKGRFTISRDDSKNSLYLQMNSLKTEDTAVYYCARGPLGYKLWGQGTLVTVSS
VL: B4 VL with S53N, D92N, T93S, L94F, I96L
notes: huIgG1; also called TI-19; ADI-19086
B7: T1-25 (antibody, IgG1, V domains shown)
VH: B4 VH with P100G, R101S, M102R, S103Y, G104S, W105H, W106F, A107D, D108Y
VL: EIVLTQSPATLSLSPGERATLSCRASQSVSSYLAWYQQKPGQAPRLLIYDASNRATGIPARFSGSGSGTDFTLTISSLEPEDFAVYYCQQRSVLPLTFGGGTKVEIK
notes: huIgG1; also called TI-25; ADI-19092
B8: T1-24 (antibody, IgG1, V domains shown)
VH: B4 VH with S52T, M102L, S103L, G104S, W105A, W106L, A107D, D108V, L114M
VL: B1 VL with N30S, S49Y, D50K, Y91D, G92S, P93I, Y96I
notes: huIgG1; also called TI-24; ADI-19150
B9: T1-23 (antibody, IgG1, V domains shown)
VH: B4 VH with S52T, M102L, S103L, G104S, W105A, W106L, A107D, D108V, L114M
VL: B1 VL with N30G, S49Y, D50K, Y91H, G92Q, P93S, Y94F, P95S, Y96P
notes: huIgG1; also called TI-23; ADI-19090

Assays:
human TREM2 on BWZ cells [1] = molecular target: T1, human TREM2 on BWZ cells (human, UniProt Q9NZC2 19-230); assay: FACS, BWZ cells
T1 construct: whole, on cells; not tied to the cell line; also called BWZ Human TREM2
T1 sequence (looked up): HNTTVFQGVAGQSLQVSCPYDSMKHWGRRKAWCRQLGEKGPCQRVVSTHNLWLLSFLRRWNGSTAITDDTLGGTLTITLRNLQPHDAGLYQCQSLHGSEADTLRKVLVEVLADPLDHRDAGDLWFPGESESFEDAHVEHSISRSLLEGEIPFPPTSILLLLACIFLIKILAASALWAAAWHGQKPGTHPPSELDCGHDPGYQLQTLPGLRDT

mouse TREM2 on BWZ cells [2] = molecular target: T2, mouse TREM2 on BWZ cells (mouse, UniProt Q99NH8 19-227); assay: FACS, BWZ cells
T2 construct: whole, on cells; also called BWZ Mouse TREM2
T2 sequence (looked up): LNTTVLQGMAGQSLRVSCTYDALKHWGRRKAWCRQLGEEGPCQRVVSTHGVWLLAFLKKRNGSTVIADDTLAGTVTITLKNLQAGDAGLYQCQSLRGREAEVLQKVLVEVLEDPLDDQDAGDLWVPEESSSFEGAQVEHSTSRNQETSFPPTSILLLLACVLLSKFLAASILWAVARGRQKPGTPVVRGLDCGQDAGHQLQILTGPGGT

mouse TREM1 on CHO cells = molecular target: T3, mouse TREM1 on CHO cells (mouse, UniProt Q9JKE2 21-230); assay: FACS, CHO mouse TREM1
T3 construct: also called CHO-mT1
T3 sequence: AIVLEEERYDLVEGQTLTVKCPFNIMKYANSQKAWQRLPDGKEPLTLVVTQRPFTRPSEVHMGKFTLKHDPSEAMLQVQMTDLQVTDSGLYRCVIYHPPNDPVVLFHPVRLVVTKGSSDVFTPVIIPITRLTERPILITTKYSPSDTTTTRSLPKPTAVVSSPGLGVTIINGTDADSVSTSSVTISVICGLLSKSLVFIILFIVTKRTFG

human TREM2 on BWZ cells [3] = molecular target: T1, human TREM2 on BWZ cells; assay: FACS, BWZ human TREM2
mouse TREM2 on BWZ cells [4] = molecular target: T2, mouse TREM2 on BWZ cells; assay: FACS, BWZ mouse TREM2

Binder	binding result (human TREM2 on BWZ cells [1])	binding result (mouse TREM2 on BWZ cells [2])	FOB Fold Over Background (mouse TREM1 on CHO cells) [fold]	FOB Fold Over Background (human TREM2 on BWZ cells [3]) [fold]	FOB Fold Over Background (mouse TREM2 on BWZ cells [4]) [fold]
B1	no binding	no binding	–	–	–
B2	no binding	no binding	0.7	0.6	1
B3	no binding	no binding	–	–	–
B4	no binding	no binding	1	0.7	1.2
B5	no binding	no binding	–	–	–
B6	no binding	no binding	0.9	0.5	0.8
B7	no binding	no binding	0.9	0.7	1.3
B8	no binding	no binding	1.3	1.4	1.2
B9	no binding	no binding	1	1	1.2
